Experimental data published in PMC5869396.

Target: recombinant Shiga toxin-2a B subunit (rStx2aB), C-terminal 6xHis tag (E. coli O157:H7 strain EDL933)
Assay: SEC; rStx2aB on Superdex-75 16/60 in PBS, 1 mL/min

recombinant Shiga toxin-2a B subunit (rStx2aB), C-terminal 6xHis tag (domain or fragment)
stoichiometry N: 5
